Sequences and labels used below:
B1: Nup153-N wild type (1- to 608-amino-acid N-terminal construct of Nup153), C-terminally Flag-tagged [human] / endogenous Nup107 [human (endogenous in HEK293T)] (parent)
chain 1: MASGAGGVGGGGGGKIRTRRCHQGPIKPYQQGRQQHQGILSRVTESVKNIVPGWLQRYFNKNEDVCSCSTDTSEVPRWPENKEDHLVYADEESSNITDGRITPEPAVSNTEEPSTTSTASNYPDVLTRPSLHRSHLNFSMLESPALHCQPSTSSAFPIGSSGFSLVKEIKDSTSQHDDDNISTTSGFSSRASDKDITVSKNTSLPPLWSPEAERSHSLSQHTATSSKKPAFNLSAFGTLSPSLGNSSILKTSQLGDSPFYPGKTTYGGAAAAVRQSKLRNTPYQAPVRRQMKAKQLSAQSYGVTSSTARRILQSLEKMSSPLADAKRIPSIVSSPLNSPLDRSGIDITDFQAKREKVDSQYPPVQRLMTPKPVSIATNRSVYFKPSLTPSGEFRKTNQRIDNKCSTGYEKNMTPGQNREQRESGFSYPNFSLPAANGLSSGVGGGGGKMRRERTRFVASKPLEEEEMEVPVLPKISLPITSSSLPTFNFSSPEITTSSPSPINSSQALTNKVQMTSPSSTGSPMFKFSSPIVKSTEANVLPPSSIGFTFSVPVAKTAELSGSSSTLEPIISSSAHHVTTVNSTNCKKTPPEDCEGPFRPAEILKEGSV
chain 2: MDRSGFGEISSPVIREAEVTRTARKQSAQKRVLLQASQDENFGNTTPRNQVIPRTPSSFRQPFTPTSRSLLRQPDISCILGTGGKSPRLTQSSGFFGNLSMVTNLDDSNWAAAFSSQRSGLFTNTEPHSITEDVTISAVMLREDDPGEAASMSMFSDFLQSFLKHSSSTVFDLVEEYENICGSQVNILSKIVSRATPGLQKFSKTASMLWLLQQEMVTWRLLASLYRDRIQSALEEESVFAVTAVNASEKTVVEALFQRDSLVRQSQLVVDWLESIAKDEIGEFSDNIEFYAKSVYWENTLHTLKQRQLTSYVGSVRPLVTELDPDAPIRQKMPLDDLDREDEVRLLKYLFTLIRAGMTEEAQRLCKRCGQAWRAATLEGWKLYHDPNVNGGTELEPVEGNPYRRIWKISCWRMAEDELFNRYERAIYAALSGNLKQLLPVCDTWEDTVWAYFRVMVDSLVEQEIQTSVATLDETEELPREYLGANWTLEKVFEELQATDKKRVLEENQEHYHIVQKFLILGDIDGLMDEFSKWLSKSRNNLPGHLLRFMTHLILFFRTLGLQTKEEVSIEVLKTYIQLLIREKHTNLIAFYTCHLPQDLAVAQYALFLESVTEFEQRHHCLELAKEADLDVATITKTVVENIRKKDNGEFSHHDLAPALDTGTTEEDRLKIDVIDWLVFDPAQRAEALKQGNAIMRKFLASKKHEAAKEVFVKIPQDSIAEIYNQCEEQGMESPLPAEDDNAIREHLCIRAYLEAHETFNEWFKHMNSVPQKPALIPQPTFTEKVAHEHKEKKYEMDFGIWKGHLDALTADVKEKMYNVLLFVDGGWMVDVREDAKEDHERTHQMVLLRKLCLPMLCFLLHTILHSTGQYQECLQLADMVSSERHKLYLVFSKEELRKLLQKLRESSLMLLDQGLDPLGYEIQL

Variants of B1 are the subject of the assay. Put plainly: Flag immunoprecipitation and Western blotting, quantified with ImageJ. The note with it: HEK293T cells transfected with Nup153-N constructs, harvested 72 h after transfection, parent: 1, read off a plot.
For the variant chain 1 S516E S518E S519E S522E, the ratio to parent is 0.57.
